Biological target: bovine thyroglobulin (natively iodinated) (bovine) (UniProt P01267)
Assay: cryo-EM structure; single-particle cryoEM; Tg at 7 mg/ml in 10 mM HEPES pH 7.4, 100 mM NaCl with 0.2% (w/v) CHAPS; vitrified at 4°C; C2 symmetry expansion, focused refinements

stoichiometry N: 2
Substance: bovine thyroglobulin (natively iodinated) (from UniProt P01267 20-2769) (natural protein)

Source: paper PMC8561740
